Experimental data from patent US20230391863A1 (published 2023).

Key:
[1] = biological target: A109 (SEQ ID NOs: 39 & 17) (Homo sapiens (Human), UniProt P0DOX7 1-214); assay: BLI (Octet RED96), affinity-purified antagonist captured on biosensor, ligand in solution
Description: (§1) In this example, the human ligand binding activities of several bifunctional antagonist molecules were measured by biolayer interferometry (BLI) using Octet RED96 (FortéBIO, Pall Corporation, USA). Binding analysis was performed by capturing the polypeptide bifunctional antagonists to biosensors. To measure the rate of association and dissociation, the bifunctional antagonists-captured biosensors were dipped in wells containing different concentrations of ligands (such as TNF-α, Activin A, Activin B, Activin AB, myostatin, and GDF-11) diluted in 1× kinetic buffer for 10 min followed by 10-20 min in 1× kinetic buffer. The bifunctional polypeptide antagonists-captured sensors were also submerged in wells containing 1× kinetic buffer to allow single reference subtraction in order to compensate for natural dissociation of the captured bifunctional antagonists. The binding sensorgrams were collected using the 8-channel detection mode on the biosensor. Data were acquired and analyzed using the FortéBIO data acquisition software v11.1 (FortéBIO, Pall Corporation, USA).

[2] = biological target: A110 (SEQ ID NOs: 41 & 17) (Homo sapiens (Human), UniProt P0DOX7 1-214); assay: as above
Description: as §1

B1: human Activin A (ligand)
chain: GLECDGKVNICCKKQFFVSFKDIGWNDWIIAPSGYHANYCEGECPSHIAGTSGSSLSFHSTVINHYRMRGHSPFANLKSCCVPTKLRPMSMLYYDDGQNIIKKDIQNMIVEECGCS
modifications: Activin A is a disulfide-linked homodimer of two identical inhibin beta A chains. The chain is given once.
Kd [1]: ~0.52 nM
Kd [2]: ~0.16 nM
